In PMC7710607:

Biological target: ACSL1 (UniProt P41216)
Experiment: GST-TBK1 binding to bead-bound flag-ACSL1
Conditions: reference: ΔC (1-657) wild type; sites S172

**Q.** “mouse TBK1 (mTBK1, GST-TBK1) C-terminal truncated, 1-657 (from UniProt Q9WUN2) ΔC (1-657) S172A” was tested. Which “binding against the reference” value did it give?
**A.** Its value is “stronger”.
